The values below come from IntAct's records for PubMed 16888620.

This experiment concerns the target sgk3_human SGK3 (UniProt Q96BR1).

Sequence of sgk3_human SGK3 (Q96BR1 whole entry): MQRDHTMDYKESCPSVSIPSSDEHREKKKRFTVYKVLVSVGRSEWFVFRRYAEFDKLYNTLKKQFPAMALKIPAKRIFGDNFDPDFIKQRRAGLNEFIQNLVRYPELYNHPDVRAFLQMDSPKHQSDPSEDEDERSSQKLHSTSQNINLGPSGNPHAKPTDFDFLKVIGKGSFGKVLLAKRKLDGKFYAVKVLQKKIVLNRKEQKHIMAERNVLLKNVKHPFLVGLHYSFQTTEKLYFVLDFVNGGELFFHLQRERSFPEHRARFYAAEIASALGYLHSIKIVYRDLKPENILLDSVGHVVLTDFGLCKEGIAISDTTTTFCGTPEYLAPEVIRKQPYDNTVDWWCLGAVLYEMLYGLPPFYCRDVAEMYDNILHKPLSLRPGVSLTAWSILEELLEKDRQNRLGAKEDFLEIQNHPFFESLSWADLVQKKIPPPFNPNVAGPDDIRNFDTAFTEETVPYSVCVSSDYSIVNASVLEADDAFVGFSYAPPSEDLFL

As for “E3 ubiquitin-protein ligase Itchy homolog (Homo sapiens), Q96J02 S450A”, the “effect of a mutation on the interaction” value was “disrupting interaction strength”.
Turning to “E3 ubiquitin-protein ligase Itchy homolog (Homo sapiens), Q96J02 T385A”, the “effect of a mutation on the interaction” value is given as “decreasing interaction strength”.
